Assay results from US20050100554A1 (published 2005).

Experiments:
RPS26 = target: T1, RPS26 (human, UniProt P62854 2-115); experiment: Y2H; INT ID 99
T1 construct: also called cbe_4270015

STX4A = target: T2, STX4A (human, UniProt Q12846 1-297); experiment: Y2H (told in text)
T2 construct: also called syntaxin 4; cbe_4270186
T2 sequence: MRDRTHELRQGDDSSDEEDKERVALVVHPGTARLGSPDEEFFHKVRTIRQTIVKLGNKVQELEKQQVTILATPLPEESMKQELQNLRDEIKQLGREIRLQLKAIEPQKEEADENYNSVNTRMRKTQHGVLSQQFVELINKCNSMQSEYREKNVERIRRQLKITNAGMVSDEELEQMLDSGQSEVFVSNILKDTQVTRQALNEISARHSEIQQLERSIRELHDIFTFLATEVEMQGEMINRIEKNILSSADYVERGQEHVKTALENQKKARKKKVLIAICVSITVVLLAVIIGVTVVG

PSMC1 = target: T3, PSMC1 (human, UniProt P62191 2-440); experiment: Y2H (told in text)
T3 construct: also called proteosome 26S subunit; proteosome subunit PMSC1

PTPN2 = target: T4, PTPN2 (human, UniProt P17706 1-415); experiment: Y2H; INT ID 160
T4 construct: also called cbe_2576474
T4 sequence (looked up): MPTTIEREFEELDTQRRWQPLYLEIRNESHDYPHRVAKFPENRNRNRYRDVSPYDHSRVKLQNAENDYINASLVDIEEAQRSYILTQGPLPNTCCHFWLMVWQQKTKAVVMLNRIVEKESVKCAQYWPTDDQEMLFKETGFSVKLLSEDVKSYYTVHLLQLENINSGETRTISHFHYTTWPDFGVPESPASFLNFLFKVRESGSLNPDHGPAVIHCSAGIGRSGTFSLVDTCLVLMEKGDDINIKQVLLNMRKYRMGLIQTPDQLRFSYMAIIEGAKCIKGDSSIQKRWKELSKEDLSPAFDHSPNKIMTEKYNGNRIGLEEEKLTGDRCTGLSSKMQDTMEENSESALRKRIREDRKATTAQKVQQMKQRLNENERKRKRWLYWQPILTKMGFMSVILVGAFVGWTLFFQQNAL

TLK2 = target: T5, TLK2 (human, UniProt Q86UE8 1-772, limits assumed); experiment: Y2H; INT ID 584
T5 construct: Y2H Gal4 fusion; also called cbe_4269167

NDUFAB1 = target: T6, NDUFAB1 (human, UniProt O14561 69-156); experiment: Y2H; INT ID 587
T6 construct: also called cbe_4269931

[1] = target: T7, adaptor-related protein complex 2, mu 1 subunit (human, UniProt Q96CW1 1-435); experiment: Y2H; INT ID 430
T7 construct: also called AP2M1; cbe_3789063

[2] = target: T8, tissue factor pathway inhibitor (lipoprotein-associated coagulation inhibitor) (human, UniProt P10646 29-304); experiment: Y2H; INT ID 309
T8 construct: also called TFPI; cbe_3834015
T8 sequence: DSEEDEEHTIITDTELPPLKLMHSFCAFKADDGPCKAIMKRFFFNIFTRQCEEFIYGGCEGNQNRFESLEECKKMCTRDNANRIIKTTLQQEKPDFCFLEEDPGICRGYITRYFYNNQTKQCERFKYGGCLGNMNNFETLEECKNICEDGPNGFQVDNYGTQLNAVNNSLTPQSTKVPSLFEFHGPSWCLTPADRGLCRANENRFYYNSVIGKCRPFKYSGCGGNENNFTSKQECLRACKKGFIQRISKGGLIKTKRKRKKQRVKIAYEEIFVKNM

RBP4 = target: T9, RBP4 (human, UniProt P02753 19-201); experiment: Y2H; INT ID 433
T9 construct: also called cbe_4265947

[3] = target: T10, phosphoglycerate mutase 1 (brain) (human, UniProt P18669 2-254); experiment: Y2H; INT ID 432
T10 construct: also called PGAM1; cbe_3820530
T10 sequence: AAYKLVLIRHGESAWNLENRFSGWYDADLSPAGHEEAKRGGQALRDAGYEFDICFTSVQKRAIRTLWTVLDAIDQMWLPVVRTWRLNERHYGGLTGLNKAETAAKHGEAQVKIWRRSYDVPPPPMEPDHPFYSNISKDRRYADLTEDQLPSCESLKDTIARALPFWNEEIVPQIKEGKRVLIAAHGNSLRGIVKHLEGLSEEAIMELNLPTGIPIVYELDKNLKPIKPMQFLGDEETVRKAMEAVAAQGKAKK

[4] = target: T11, Homo sapiens QUAKING isoform 5 (QUAKING) (human, UniProt Q96PU8 5-341); experiment: Y2H; INT ID 431
T11 construct: also called cbe_3810032
T11 sequence: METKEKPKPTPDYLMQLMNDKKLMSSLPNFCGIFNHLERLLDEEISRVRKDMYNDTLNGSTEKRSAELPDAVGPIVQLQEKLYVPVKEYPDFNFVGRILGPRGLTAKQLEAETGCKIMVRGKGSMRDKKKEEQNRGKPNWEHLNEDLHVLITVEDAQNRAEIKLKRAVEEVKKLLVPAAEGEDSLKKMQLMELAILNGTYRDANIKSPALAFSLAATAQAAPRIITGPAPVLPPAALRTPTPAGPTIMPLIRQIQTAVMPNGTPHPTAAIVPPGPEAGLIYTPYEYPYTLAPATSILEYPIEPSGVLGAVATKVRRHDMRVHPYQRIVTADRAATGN

ANXA2 = target: T12, ANXA2 (human, UniProt P07355 2-339); experiment: Y2H; INT ID 426
T12 construct: also called cbe_4267867

hexokinase 1 = target: T13, hexokinase 1 (human, UniProt P19367 22-917); experiment: Y2H; INT ID 425
T13 construct: also called HK1; cbe_3665307
T13 sequence: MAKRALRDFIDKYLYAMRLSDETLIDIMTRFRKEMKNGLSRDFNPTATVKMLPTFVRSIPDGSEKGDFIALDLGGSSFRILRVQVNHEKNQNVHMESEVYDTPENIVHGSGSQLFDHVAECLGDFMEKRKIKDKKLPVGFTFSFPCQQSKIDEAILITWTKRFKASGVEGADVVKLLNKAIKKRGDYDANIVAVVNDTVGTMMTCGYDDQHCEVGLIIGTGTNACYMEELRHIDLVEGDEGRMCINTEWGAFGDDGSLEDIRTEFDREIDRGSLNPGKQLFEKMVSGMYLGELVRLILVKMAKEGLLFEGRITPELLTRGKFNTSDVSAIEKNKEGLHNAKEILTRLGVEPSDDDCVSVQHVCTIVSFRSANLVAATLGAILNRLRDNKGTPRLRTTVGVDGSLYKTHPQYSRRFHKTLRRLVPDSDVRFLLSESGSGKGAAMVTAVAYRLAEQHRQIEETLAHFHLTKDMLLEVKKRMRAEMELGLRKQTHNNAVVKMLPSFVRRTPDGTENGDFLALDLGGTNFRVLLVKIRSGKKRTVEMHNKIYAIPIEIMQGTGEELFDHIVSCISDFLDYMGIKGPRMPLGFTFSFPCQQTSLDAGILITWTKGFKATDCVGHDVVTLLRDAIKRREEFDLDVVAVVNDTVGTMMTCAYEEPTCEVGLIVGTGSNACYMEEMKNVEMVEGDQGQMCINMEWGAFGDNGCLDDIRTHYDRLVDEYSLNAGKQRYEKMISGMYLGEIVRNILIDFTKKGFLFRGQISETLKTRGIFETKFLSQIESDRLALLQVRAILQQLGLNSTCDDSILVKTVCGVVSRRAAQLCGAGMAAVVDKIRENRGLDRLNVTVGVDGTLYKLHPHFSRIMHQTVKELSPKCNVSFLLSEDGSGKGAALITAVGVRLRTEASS

[5] = target: T14, exportin 1 (CRM1 homolog, yeast) (human, UniProt O14980 1-1071); experiment: Y2H; INT ID 424
T14 construct: also called XPO1; cbe_3621798

[6] = target: T15, Human Papillomavirus 1a L1 (Human Papillomavirus 1a, UniProt P03099 1-508); experiment: Y2H; INT ID 438
T15 construct: also called HPV 1a L1; cbe_252016
T15 sequence: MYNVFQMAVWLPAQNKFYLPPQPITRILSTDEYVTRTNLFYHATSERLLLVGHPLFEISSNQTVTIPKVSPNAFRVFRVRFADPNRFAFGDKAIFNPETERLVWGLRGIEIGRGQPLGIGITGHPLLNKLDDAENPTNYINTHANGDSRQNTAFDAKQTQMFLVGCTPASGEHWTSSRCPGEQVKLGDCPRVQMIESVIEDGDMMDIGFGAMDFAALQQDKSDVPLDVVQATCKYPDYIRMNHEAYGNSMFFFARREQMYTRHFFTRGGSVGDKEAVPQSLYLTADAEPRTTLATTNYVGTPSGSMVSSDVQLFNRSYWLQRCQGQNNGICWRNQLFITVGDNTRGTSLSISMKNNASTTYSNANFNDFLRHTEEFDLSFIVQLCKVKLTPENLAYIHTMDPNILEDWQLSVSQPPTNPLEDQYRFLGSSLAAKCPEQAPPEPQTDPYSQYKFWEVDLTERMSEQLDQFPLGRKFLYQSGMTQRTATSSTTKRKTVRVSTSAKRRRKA

[7] = target: T15, Human Papillomavirus 1a L1; experiment: Y2H; INT ID 439

T5 sequence (Q86UE8 whole entry, the tested form may be a part): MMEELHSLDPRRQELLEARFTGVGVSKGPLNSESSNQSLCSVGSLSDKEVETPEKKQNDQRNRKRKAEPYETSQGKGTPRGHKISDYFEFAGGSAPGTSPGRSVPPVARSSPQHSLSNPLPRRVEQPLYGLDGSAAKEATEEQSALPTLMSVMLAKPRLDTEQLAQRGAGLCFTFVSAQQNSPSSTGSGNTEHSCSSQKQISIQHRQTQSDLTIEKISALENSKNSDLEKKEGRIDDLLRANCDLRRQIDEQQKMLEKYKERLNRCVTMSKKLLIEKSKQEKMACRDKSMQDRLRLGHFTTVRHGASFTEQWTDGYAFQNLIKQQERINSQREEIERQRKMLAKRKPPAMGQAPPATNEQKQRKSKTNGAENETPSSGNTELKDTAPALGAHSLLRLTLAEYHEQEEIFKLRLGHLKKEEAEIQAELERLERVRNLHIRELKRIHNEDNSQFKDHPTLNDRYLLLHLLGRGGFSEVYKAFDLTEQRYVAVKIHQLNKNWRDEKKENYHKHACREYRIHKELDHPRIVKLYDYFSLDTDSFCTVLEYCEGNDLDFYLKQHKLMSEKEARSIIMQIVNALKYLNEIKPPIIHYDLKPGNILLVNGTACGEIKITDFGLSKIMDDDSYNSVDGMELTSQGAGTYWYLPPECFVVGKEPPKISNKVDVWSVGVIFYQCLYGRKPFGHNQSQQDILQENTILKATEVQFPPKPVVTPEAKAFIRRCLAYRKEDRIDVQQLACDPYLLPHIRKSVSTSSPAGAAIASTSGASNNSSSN
T7 sequence (Q96CW1 whole entry, one chain of several): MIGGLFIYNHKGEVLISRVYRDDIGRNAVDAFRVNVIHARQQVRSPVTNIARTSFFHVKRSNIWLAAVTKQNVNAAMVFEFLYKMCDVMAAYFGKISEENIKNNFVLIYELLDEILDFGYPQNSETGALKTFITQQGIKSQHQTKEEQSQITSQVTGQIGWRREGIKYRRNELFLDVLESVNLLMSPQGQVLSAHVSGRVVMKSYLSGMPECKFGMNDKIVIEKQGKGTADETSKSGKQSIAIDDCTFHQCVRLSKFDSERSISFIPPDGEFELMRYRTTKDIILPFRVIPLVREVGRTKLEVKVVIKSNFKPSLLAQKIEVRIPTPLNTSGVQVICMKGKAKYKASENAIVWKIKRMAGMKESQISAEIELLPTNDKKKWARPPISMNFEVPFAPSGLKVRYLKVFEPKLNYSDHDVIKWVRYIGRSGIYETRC
T14 sequence (O14980 whole entry): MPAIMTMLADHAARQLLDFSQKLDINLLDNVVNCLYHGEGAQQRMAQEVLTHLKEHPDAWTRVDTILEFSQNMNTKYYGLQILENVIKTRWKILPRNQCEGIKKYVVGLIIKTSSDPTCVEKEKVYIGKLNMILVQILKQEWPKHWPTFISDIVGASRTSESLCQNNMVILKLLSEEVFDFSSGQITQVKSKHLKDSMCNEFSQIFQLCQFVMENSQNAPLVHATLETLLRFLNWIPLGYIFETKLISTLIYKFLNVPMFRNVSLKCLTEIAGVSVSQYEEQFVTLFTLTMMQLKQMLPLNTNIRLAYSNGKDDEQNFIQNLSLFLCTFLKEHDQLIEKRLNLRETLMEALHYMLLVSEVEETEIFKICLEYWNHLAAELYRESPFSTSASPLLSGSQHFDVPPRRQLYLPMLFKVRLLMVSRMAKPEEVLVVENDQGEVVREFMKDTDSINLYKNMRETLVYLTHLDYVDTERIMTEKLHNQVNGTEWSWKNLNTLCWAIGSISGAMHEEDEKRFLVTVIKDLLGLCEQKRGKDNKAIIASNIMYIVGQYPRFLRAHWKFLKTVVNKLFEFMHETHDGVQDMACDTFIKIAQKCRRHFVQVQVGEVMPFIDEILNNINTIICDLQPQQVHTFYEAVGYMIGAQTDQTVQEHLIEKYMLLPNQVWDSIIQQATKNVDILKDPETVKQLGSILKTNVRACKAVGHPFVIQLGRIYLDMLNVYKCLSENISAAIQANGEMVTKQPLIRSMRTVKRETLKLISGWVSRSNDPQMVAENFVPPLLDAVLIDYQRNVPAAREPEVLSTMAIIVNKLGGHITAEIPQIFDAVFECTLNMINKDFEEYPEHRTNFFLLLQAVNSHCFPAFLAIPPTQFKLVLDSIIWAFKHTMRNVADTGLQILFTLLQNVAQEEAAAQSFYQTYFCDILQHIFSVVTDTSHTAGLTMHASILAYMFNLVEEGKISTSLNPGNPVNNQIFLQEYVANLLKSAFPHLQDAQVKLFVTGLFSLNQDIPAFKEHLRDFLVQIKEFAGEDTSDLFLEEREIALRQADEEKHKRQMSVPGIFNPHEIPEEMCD
T12 sequence (P07355 2-339 limits assumed): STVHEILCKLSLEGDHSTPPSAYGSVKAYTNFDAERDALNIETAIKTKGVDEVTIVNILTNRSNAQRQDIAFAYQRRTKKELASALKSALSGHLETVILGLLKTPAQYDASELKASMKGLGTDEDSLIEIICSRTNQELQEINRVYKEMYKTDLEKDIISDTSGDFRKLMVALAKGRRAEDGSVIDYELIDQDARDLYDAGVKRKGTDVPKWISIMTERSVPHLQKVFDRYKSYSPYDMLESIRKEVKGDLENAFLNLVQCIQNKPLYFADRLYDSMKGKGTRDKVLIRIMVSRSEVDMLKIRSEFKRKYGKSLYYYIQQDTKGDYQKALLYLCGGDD
T3 sequence (P62191 2-440 limits assumed): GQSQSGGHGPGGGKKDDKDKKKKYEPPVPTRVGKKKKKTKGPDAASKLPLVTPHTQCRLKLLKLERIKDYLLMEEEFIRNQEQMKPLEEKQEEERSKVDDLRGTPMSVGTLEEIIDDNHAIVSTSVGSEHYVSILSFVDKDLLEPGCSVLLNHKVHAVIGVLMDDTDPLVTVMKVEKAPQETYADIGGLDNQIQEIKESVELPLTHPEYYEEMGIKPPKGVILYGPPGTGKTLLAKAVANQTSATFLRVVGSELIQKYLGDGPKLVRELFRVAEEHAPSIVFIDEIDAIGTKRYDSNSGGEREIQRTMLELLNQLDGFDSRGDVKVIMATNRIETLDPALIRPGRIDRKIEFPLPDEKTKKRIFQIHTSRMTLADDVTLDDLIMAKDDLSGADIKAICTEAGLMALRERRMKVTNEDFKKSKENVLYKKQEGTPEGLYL

B1: Human papillomavirus 16 E6 (other)
chain: MHQKRTAMFQDPQERPRKLPQLCTELQTTIHDIILECVYCKQQLLRREVYDFAFRDLCIVYRDGNPYAVCDKCLKFYSKISEYRHYCYSLYGTTLEQQYNKPLCDLLIRCINCQKPLCPEEKQRHLDKKQRFHNIRGRWTGRCMSCCRSSRTRRETQL
notes: also called HPV 16 E6; HPV16 E6
Q: Does B1 bind (RPS26)?
A: binds

Q: Does B1 bind (STX4A)?
A: binds

Q: Does B1 bind (PSMC1)?
A: binds

Q: Does B1 bind (PTPN2)?
A: binds

B2: Human Papillomavirus 1a E1 (other)
chain: MADNKGTENDWFLVEATDCEETLEETSLGDLDNVSCVSDLSDLLDEAPQSQGNSLELFHKQESLESEQELNALKRKLLYSPQARSADETDIASISPRLETISITKQDKKRYRRQLFSQDDSGLELSLLQDETENIDESTQVDQQQKEHTGEVGAAGVNILKASNIRAALLSRFKDTAGVSFTDLTRSYKSNKTCCGDWVLAVWGVRENLIDSVKELLQTHCVYIQLEHAVTEKNRFLFLLVRFKAQKSRETVIKLITTILPVDASYILSEPPKSRSVAAALFWYKRSMSSTVFTWGTTLEWIAQQTLINHQLDSESPFELCKMVQWAYDNGHTEECKIAYYYAVLADEDENARAFLSSNSQAKYVKDCAQMVRHYLRAEMAQMSMSEWIFRKLDNVEGSGNWKEIVRFLRFQEVEFISFMIAFKDLLCGKPKKNCLLIFGPPNTGKSMFCTSLLKLLGGKVISYCNSKSQFWLQPLADAKIGLLDDATKPCWDYMDIYMRNALDGNTICIDLKHRAPQQIKCPPLLITSNIDVKSDTCWMYLHSRISAFKFAHEFPFKDNGDPGFSLTDENWKSFFERFWQQLELSDQEDEGNDGKPQQSLRLTARAANEPI
notes: also called HPV 1a E1; cbe_552975
Q: Does B2 bind (TLK2)?
A: binds

Q: Does B2 bind (NDUFAB1)?
A: binds

B3: Human Papillomavirus 1a E7 (other)
chain: MVGEMPALKDLVLQLEPSVLDLDLYCYEEVPPDDIEEELVSPQQPYAVVASCAYCEKLVRLTVLADHSAIRQLEELLLRSLNIVCPLCTLQRQ
notes: also called HPV 1a E7; cbe_251925
Q: Does B3 bind [1]?
A: binds

Q: Does B3 bind [2]?
A: binds

Q: Does B3 bind (RBP4)?
A: binds

Q: Does B3 bind [3]?
A: binds

Q: Does B3 bind [4]?
A: binds

B4: Human Papillomavirus 1a E6 (other)
chain: MATPIRTVRQLSESLCIPYIDVLLPCNFCNYFLSNAEKLLFDHFDLHLVWRDNLVFGCCQGCARTVSLLEFVLYYQESYEVPEIEEILDRPLLQIELRCVTCIKKLSVAEKLEVVSNGERVHRVRNRLKAKCSLCRLYAI
notes: also called HPV 1a E6; cbe_251919
Q: Does B4 bind (ANXA2)?
A: binds

Q: Does B4 bind (hexokinase 1)?
A: binds

Q: Does B4 bind [5]?
A: binds

B5: isovaleryl Coenzyme A dehydrogenase (enzyme)
chain: HSLLPVDDAINGLSEEQRQLRQTMAKFLQEHLAPKAQEIDRSNEFKNLREFWKQLGNLGVLGITAPVQYGGSGLGYLEHVLVMEEISRASGAVGLSYGAHSNLCINQLVRNGNEAQKEKYLPKLISGEYIGALAMSEPNAGSDVVSMKLKAEKKGNHYILNGNKFWITNGPDADVLIVYAKTDLAAVPASRGITAFIVEKGMPGFSTSKKLDKLGMRGSNTCELIFEDCKIPAANILGHENKGVYVLMSGLDLERLVLAGGPLGLMQAVLDHTIPYLHVREAFGQKIGHFQLMQGKMADMYTRLMACRQYVYNVAKACDEGHCTAKDCAGVILYSAECATQVALDGIQCFGGNGYINDFPMGRFLRDAKLYEIGAGTSEVRRLVIGRAFNADFH
notes: also called IVD; cbe_3800240
Q: Does B5 bind [6]?
A: binds

B6: NR1H2 (receptor)
chain: MSSPTTSSLDTPLPGNGPPQPGAPSSSPTVKEEGPEPWPGGPDPDVPGTDEASSACSTDWVIPDPEEEPERKRKKGPAPKMLGHELCRVCGDKASGFHYNVLSCEGCKGFFRRSVVRGGARRYACRGGGTCQMDAFMRRKCQQCRLRKCKEAGMREQCVLSEEQIRKKKIRKQQQESQSQSQSPVGPQGSSSSASGPGASPGGSEAGSQGSGEGEGVQLTAAQELMIQQLVAAQLQCNKRSFSDQPKVTPWPLGADPQSRDARQQRFAHFTELAIISVQEIVDFAKQVPGFLQLGREDQIALLKASTIEIMLLETARRYNHETECITFLKDFTYSKDDFHRAGLQVEFINPIFEFSRAMRRLGLDDAEYALLIAINIFSADRPNVQEPGRVEALQQPYVEALLSYTRIKRPQDQLRFPRMLMKLVSLRTLSSVHSEQVFALRLQDKKLPPLLSEIWDVHE
notes: also called cbe_4268726
Q: Does B6 bind [7]?
A: binds
